Assay results: article PMC3164098 (2011)
Ends that are not written are not given here.

Target: T1, 12/1 peptide
T1 chain: MPRFMDYWEGLN-NH2
Test: ITC

Kd: 240 nM
B1: MDM2 18-125 (protein)
chain: QIPASEQETLVRPKPLLLKLLKSVGAQKDTYTMKEVLFYLGQYIMTKRLYDEKQQHIVYCSNDLLGDLFGVPSFSVKEHRKIYTMIYRNLVVVNQQESSDSGTSVSEN
